Assay [1] concerns the target T1, mouse Smoothened (SMO) residues 64-566, crystallization construct (Mus musculus, UniProt P56726). As to the kind of experiment: SPR.
Assay [2] has as its target T1, mouse Smoothened (SMO) residues 64-566, …. As to the kind of experiment: SPR. This is another data set of the same source.

Where two headings read alike, the source gives them in different places.

From paper PMC6709672 (Nature, 2019) come the findings set out here.

T1 sequence (P56726 64-566): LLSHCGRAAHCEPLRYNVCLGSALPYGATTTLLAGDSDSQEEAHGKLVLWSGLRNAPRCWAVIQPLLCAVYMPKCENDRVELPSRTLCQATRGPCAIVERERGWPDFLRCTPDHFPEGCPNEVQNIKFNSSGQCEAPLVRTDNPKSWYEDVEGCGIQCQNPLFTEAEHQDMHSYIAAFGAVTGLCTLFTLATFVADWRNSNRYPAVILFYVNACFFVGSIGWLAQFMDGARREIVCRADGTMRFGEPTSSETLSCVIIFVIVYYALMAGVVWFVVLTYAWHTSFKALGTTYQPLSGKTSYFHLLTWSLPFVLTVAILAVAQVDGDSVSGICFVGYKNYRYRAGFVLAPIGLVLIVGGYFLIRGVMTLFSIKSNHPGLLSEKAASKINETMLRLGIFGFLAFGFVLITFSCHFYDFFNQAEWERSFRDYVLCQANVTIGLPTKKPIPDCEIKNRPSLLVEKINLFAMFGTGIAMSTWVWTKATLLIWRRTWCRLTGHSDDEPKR

B1: NbSmo8 with a C-terminal hexahistidine tag (VHH)
VHH: QVQLQESGGGLVQAGGSLRLSCAASGYIFSSYAMGWYRQAPGKEREFVATIGWGTITYYADSVKGRFTISRDNAKNTVYLQMNSLKPEDTAVYYCAAQDLLYYSFPGDHAYWGQGTQVTVSS
Take B1: the dissociation constant (Kd) in assay [1] was determined as 117 nM; in assay [2], 168 nM.
